Assay results from paper doi:10.1101/2021.04.22.440356.

Target: human ubiquitin (15N-ubiquitin of the peptide titration) (human) (UniProt P0CG48)
Test: NMR titration

Chain of short peptide from the YUH1 N-terminus (1-10) (P35127 whole entry, looked up, tested part not stated): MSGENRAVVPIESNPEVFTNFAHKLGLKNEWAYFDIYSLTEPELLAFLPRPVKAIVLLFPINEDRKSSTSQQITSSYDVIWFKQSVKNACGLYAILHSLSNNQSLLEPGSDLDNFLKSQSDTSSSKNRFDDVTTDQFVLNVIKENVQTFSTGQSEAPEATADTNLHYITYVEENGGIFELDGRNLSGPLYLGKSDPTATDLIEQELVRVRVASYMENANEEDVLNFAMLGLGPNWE

short peptide from the YUH1 N-terminus (1-10) (from UniProt P35127 1-10)
Kd: 180 µM
